Measured values taken from paper PMC6420155.
Where a chain is given by its changes, count along the chain named. Names and notes keep the numbering of the source.

B1: Venus-tagged arrestin-3 A87V base mutant, P32120 K313A (protein)
chain: MGEKPGTRVFKKSSPNCKLTVYLGKRDFVDHLDKVDPVDGVVLVDPDYLKDRKVFVTLTCAFRYGREDLDVLGLSFRKDLFIANYQVFPPTPNPPRPPTRLQERLLRKLGQHAHPFFFTIPQNLPCSVTLQPGPEDTGKACGVDFEIRAFCAKSLEEKSHKRNSVRLVIRKVQFAPEKPGPQPSAETTRHFLMSDRSLHLEASLDKELYYHGEPLNVNVHVTNNSTKTVKKIKVSVRQYADICLFSTAQYKCPVAQVEQDDQVSPSSTFCKVYTITPLLSNNREKRGLALDGKLKHEDTNLASSTIVKEGANAEVLGILVSYRVKVKLVVSRGGDVSVELPFVLMHPKPHDHIALPRPQSAA
B2: Venus-tagged arrestin-3 A87V base mutant, P32120 E157A (protein)
chain: B1 chain with E157A, A313K
B3: Venus-tagged arrestin-3 A87V base mutant, P32120 G65P (protein)
chain: B1 chain with G65P, A313K
B4: Venus-tagged arrestin-3 A87V base mutant, P32120 F245A (protein)
chain: B1 chain with F245A, A313K
B5: Venus-tagged arrestin-3 A87V base mutant, P32120 G65del (protein)
chain: MGEKPGTRVFKKSSPNCKLTVYLGKRDFVDHLDKVDPVDGVVLVDPDYLKDRKVFVTLTCAFRYREDLDVLGLSFRKDLFIANYQVFPPTPNPPRPPTRLQERLLRKLGQHAHPFFFTIPQNLPCSVTLQPGPEDTGKACGVDFEIRAFCAKSLEEKSHKRNSVRLVIRKVQFAPEKPGPQPSAETTRHFLMSDRSLHLEASLDKELYYHGEPLNVNVHVTNNSTKTVKKIKVSVRQYADICLFSTAQYKCPVAQVEQDDQVSPSSTFCKVYTITPLLSNNREKRGLALDGKLKHEDTNLASSTIVKEGANKEVLGILVSYRVKVKLVVSRGGDVSVELPFVLMHPKPHDHIALPRPQSAA

How the values were obtained:
[1] = biological target: dopamine D2 receptor (long isoform), C-terminally tagged with Renilla luciferase variant 8 (human) (UniProt P14416); experiment: FRET or BRET; in-cell BRET in HEK293 arrestin-2/3 KO cells co-transfected with Venus-arrestin-3 (acceptor) and receptor-RLuc8 (donor); 10 uM agonist (carbachol for M2R, isoproterenol for β2AR, dopamine for D1R, quinpirole for D2R), 5 uM coelenterazine h; net BRET (with minus without agonist), average at 10 and 15 min and time course
[2] = biological target: T1, M2 muscarinic acetylcholine receptor, C-terminally tagged with Renilla luciferase variant 8, P08172; experiment: BRET; details: chain shown with the change; HEK293 arrestin 2/3 KO cells; agonist-induced minus basal BRET; average at 10 and 15 min; parent: est. 0.029; read off a plot
T1 chain: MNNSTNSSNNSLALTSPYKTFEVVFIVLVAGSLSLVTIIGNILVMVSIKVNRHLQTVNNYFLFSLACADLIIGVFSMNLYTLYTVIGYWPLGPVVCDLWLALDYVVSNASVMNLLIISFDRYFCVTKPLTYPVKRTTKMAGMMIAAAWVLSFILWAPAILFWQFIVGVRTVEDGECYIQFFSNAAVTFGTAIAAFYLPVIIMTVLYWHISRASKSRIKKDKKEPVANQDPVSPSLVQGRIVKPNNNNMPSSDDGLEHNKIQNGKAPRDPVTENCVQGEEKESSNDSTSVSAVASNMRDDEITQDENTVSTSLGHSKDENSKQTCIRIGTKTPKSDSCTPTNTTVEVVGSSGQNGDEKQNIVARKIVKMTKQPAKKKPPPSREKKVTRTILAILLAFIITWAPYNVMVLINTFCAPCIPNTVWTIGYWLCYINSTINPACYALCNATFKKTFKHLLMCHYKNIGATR

[3] = biological target: T2, dopamine D1 receptor, C-terminally tagged with Renilla luciferase variant 8, P21728; experiment: BRET; details: chain shown with the change; HEK293 arrestin 2/3 KO cells; agonist-induced minus basal BRET; average at 10 and 15 min; parent: est. 0.032; read off a plot
T2 chain: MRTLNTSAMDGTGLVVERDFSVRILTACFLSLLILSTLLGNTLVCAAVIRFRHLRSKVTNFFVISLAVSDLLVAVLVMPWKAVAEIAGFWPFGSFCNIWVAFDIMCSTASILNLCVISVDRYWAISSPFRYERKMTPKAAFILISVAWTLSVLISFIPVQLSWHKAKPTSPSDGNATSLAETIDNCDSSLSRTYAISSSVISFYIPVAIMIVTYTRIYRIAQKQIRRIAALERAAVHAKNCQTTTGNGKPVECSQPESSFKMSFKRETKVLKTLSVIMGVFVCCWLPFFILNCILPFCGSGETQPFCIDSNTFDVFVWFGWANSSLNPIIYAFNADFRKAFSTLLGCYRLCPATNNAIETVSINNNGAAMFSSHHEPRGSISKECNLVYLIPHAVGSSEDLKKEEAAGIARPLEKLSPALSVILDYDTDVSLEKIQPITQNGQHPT

[4] = biological target: T3, dopamine D2 receptor (long isoform), C-terminally tagged with Renilla luciferase variant 8, P14416; experiment: BRET; details: chain shown with the change; HEK293 arrestin 2/3 KO cells; agonist-induced minus basal BRET; average at 10 and 15 min; parent: est. 0.023; read off a plot
T3 chain: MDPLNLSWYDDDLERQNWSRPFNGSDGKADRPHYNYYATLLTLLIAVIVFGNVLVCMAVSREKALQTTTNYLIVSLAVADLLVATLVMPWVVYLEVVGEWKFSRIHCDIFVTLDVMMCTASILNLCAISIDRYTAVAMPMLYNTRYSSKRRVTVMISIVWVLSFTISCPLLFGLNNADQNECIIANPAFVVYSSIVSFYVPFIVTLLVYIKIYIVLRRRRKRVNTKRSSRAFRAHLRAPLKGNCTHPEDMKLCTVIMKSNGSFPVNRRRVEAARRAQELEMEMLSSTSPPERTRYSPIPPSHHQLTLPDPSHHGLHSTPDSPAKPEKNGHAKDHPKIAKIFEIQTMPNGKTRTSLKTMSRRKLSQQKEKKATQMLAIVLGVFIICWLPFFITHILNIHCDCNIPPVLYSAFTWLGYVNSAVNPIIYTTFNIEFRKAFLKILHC

[5] = biological target: T4, HA-tagged dopamine D2 receptor, P14416; experiment: co-immunoprecipitation (quantified immunoblot); details: chain shown with the change; HEK293 arrestin 2/3 KO cells; 10 μM quinpirole; non-specific binding (no HA-D2R) subtracted; parent: est. 8.4; read off a plot
T4 chain: T3 chain

Row | Molecule | reduction of binding (net BRET) against A87V [1] [%] | response [2] | response [3] | response [4] | response [5]
1 | Venus-tagged arrestin-3 ΔG65 (on the A87V background) (from UniProt P32120 1-362) (natural protein) | 80 | – | – | – | –
2 | B1 | – | 0.032 | 0.033 | 0.025 | –
3 | B2 | – | 0.026 | 0.042 | 0.023 | –
4 | B3 | – | 0.023 | 0.033 | 0.019 | –
5 | B4 | – | 0.031 | 0.042 | 0.027 | –
6 | B5 | – | 0.019 | 0.019 | – | 2.7
